Data on 41 sequences can be found in the nanobody polyreactivity screen of Harvey et al. (2022).

The nature of the series: yeast display, Sf9 membrane polyspecificity reagent, FACS + sequencing; frameworks hold sequencing errors. In outline: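 Nanobodies from a synthetic yeast display library (Saccharomyces cerevisiae BJ5465), induced 36–48 hours with galactose, were stained 1 hour at 4 °C with 10% biotinylated, detergent-solubilized Sf9 membrane reagent, enriched on streptavidin microbeads, then FACS-sorted. Anti-HA (expression) and streptavidin (reagent binding) fluorescence set low and high (top ~1%) gates. Polyreactivity labels come from the gate of origin. Genes were colony-PCR amplified, MiSeq 2 × 250 sequenced and filtered by CDR length.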
With “QVQLLESGGGLVQAGGSLRLSCAASGSTFTNYAMGWYRQAPGKERELVAAITSGGSTYYADSVKGRCTISRDNAKNTVYLQMNSLKPEDTAVYYCNAVYFSEYDSWGQGTLVTVSS”, the “polyreactivity (PSR sort gate)” value is listed as “low polyreactivity”.
For the sequence “QVQLLESGGGLVQAGGSLRLSCAASGSTYSRYDMGWYRPAPGKERELVAAISRSGGSTYYADSVKGRFTISRDNAKNTVYLQMNSLKPEDTAGYYCAAYLPYRQGRYGYEYWGQGTQVNVSS”, the “polyreactivity (PSR sort gate)” value is “high polyreactivity”.
“QVQLLESGGGLVQAGGSLRLSCAASRRIIYGYAMGWYRQAPGKERELVAAITATYYADSVKGRFTISRDNPKNTVYLLMNSLKAVDTAVYYCNAYLSPKQPLSPQDPTFEGGYWGQCTQVTVSS”: the “polyreactivity (PSR sort gate)” value is listed as “low polyreactivity”.
The result for “QVQLLESGGGLVQAGGSLRLSCASSGFTFGWYAMGWYRPAPGKERDLVAAISYSGGSTYYADSVKGRFTISRDNAKNTVYLQMNSLKPEDTAVYYCAAKARRPYSYHPYDYWGQGTQVTVSS” reads “high polyreactivity”; that for “QVQLLESGGGLVQAGGSLRLSCASSGYTIIQYAMGWYRQAPGKERELVAGNTWSGGSTYADSVKGRFTISRDNAKNTVYLQMKSLKQEDTAVYYCAADQEPGKYRFPYARKNNYWGQGTQVTVSS”, “low polyreactivity”; that for “QVQLLESGGGLVQAGGSLRLSCDASGSISYHNAMGWYRQAPGKERELVASITSGSSTYYADSVKGSFTISRDNAKNTVYLQMNSLKPEDTAVYYCAAQDYSPYERGRDYWGQGTQVTVSS”, “low polyreactivity”.
Then “QVQLLESGGGLVQAGGSLRLSCPASGRIFGSYAMRSYRKAPGKERDFVAAISRTGGSTYYADSVKGRFTISRDNAKNTVYLQFTSLKPEDTAVYYCAASYRWRFVRGYYWGQGTQVNVSS”, with “high polyreactivity”; and “QVQLLESGGGLVQAGGSLRLSCVASGGILSSNAMGWYRQAPGKERELVAAISSGGSTNYADSVKGRFTISRDNAKNTVYLQMNSLKPDDTAVYYCAADSKIGSFDSWGQGTQVNVSS”, with “low polyreactivity”; and “QVQLLESGGGLVQAGGSLRLTCAASGRIFAYYAMAWYRQAPGKERELVAAITSGGSTYYADSVKGRFTISRDNAKNTVYLQMNILKPEDTAVYYCNAGYGQWSRGHWRLSSVPYYYWGQGTQVTVSS”, with “high polyreactivity”.
For “QVQLLESGGGLVQAGGSLRLTCAASGSIFFYYAMAWYRQAPGKEMEFVAGITYSGGITYYADSVKGRFTISRDNEKNTVYLQMNSLKPEDTAVYYCDYGGGVYQYGYWGQGTLVTVSS”, the “polyreactivity (PSR sort gate)” value is given as “low polyreactivity”.
The result for “QVQLLESGGGLVQAGGSLRLTCAASGSIFVIYAMGWYRQAPGKVRELVAAIDSSDGSTYYADSVKGRFTISRDNAKNTVYLQMNSLKPEDTAVYYCAARRLYWGQGTQVTVSS” reads “high polyreactivity”; that for “QVQLLESGGGLVQAGGSLRLTSPASVRISQIYAMGWYIQAPGTERVLVARITSTDSTYYADSVKGRFTISRDNAKNTVYLQMNSLKPEDTAVYYCAASWWSPYDYWGQGTQVTVSS”, “low polyreactivity”; that for “QVQLLESGGGLVQAGGSLSLSCMASGSILGDRMSWYRQAPGKEHELVATIYDGGITYYADSMKGRFTISRDNAKNTVYLQMNSLRPEDTAVYYCGASFEGYRYHVYCGQGTQVTVSS”, “low polyreactivity”.
With “QVQLLESGGGLVQAGRSLRLSCAASGNTFDEYVKGWYRQAPGKESELDASIDWSGGGTYYADSVKGRFTISRDNAKNTVYLQMNSLKPEDTAVFYCNADYFDYSRTRYDYWGQGTQVNVSS”, the “polyreactivity (PSR sort gate)” value is reported as “low polyreactivity”.
The result for “QVQLLESGGGLVQAGRSLRLSCAASGRIFRYYAMGWYRQAPGKERELVAAISYSTGGTSTYADSVKGRFTISRDNAKTTVYLQMNSLKPEDTAVYYCAVRRQYRRAYSFSQSRYDYWGQGTQVTVSS” reads “high polyreactivity”; that for “QVQLLESGGGLVQPGGILRLSCAASGSTFVRYAMGWYRQAPGKERELVAAISYRGGSTYYADSVKGLFTISRDNANNSVYLELYSLKPEDTAVYYCAAESRHVEGEYWGQGTQVTVSS”, “high polyreactivity”.
Then “QVQLLESGGGLVQPGGSLRLSCAASGSIFDGYAMVWYRQAPGKERELVAAISSSGGSTYYADSVKGRYTISRDTAKNTVYLQMNSLQREDSAVYYCAARFPWRGGVKYSYYFQHDYWGQGTQVTVSS”, with “high polyreactivity”; and “QVQLLESGGGLVQSGGSLRLTCAASGFTFRGYAMGWYRQAPGKERELVAAISWNGGRTYADSVKGRFTITRDNAKYTVYLQMNSLKPEDTAVYYCNAVKFGATAYDYWGQGTQVTVSS”, with “high polyreactivity”.
On to “QVQLLESGGRLVQAGRSLRLSCAASGRTFGPYAMGWYRQAPGKEREFVAAISSRGGRTYYADSVKGRFTISRDNAKNTVYLQLNSLKPEDTAVYYCAAEYNYSNKYLYLFLQMDYWGQGSQVTVSS”, for which the “polyreactivity (PSR sort gate)” value is on record as “low polyreactivity”.
On to “QVQLLESGVGLVQAGGSLRLSCAASGFSFGAYTLGWYRQAPRKERELVAAIRGSGGSTYYADSVKGRFTISRDNAKNTVYFQINSLKPDDTAVYYCAKTLTYGFRRYDYWGQGTQVTVSS”, for which the “polyreactivity (PSR sort gate)” value is “high polyreactivity”.
The result for “QVQLLESGVGLVQAGGSLRLSCAASGSILYINALGWSRPAPGKARELVAAITYSGGSTYYADSVKGRFTISRDNAKKPVYLQMNSLKPEDTAVYYCAADAVVAGRYDGHAYWGQGTQVTVSS” reads “low polyreactivity”; that for “QVQLLESGVGLVQEGGSLRLSCPASGRIFGSKAMGWYRQAPGKERELVAAITRGGSTNYADSVEGRFTISRDNAKNTVYLQMNSLKPEYTAVYYCAVRWYRKYNYWGQGTLVTVSS”, “high polyreactivity”; that for “QVQLLESRGGLVQAGGSLRLSCAASGRNFGRYTMGWYRQAPGKERELVAAISARGGSTYYADSVKGRFTISRDNAKNTVYLQMNSLKPEDTAVYYCNTVRVHGFPIDRIYDYWGQGTQVTVSS”, “high polyreactivity”.
Turning to “QVQLLETGGGLVQAGGSLRLSCAASGNTIIRYAMGWYRQAPGTERELVAAISYSGGRSYYADSVKGRFTISRDNAKYTVYLLMNSLKPEDTEVYYCIAASRYGGDYWGQVTQVTVSS”, the “polyreactivity (PSR sort gate)” value is listed as “low polyreactivity”.
Take “QVQLPESGGGLVQAGGSLRLICAASGYISTFSSEMGWYRQAPGKERELVASIAPGCTTSYADSVKGRFTISRDNAKNTVYLQMNSLKPEDTAVYYCGVDYTVPASFGYWGQGTQVTVSS”: the “polyreactivity (PSR sort gate)” value is on record as “high polyreactivity”.
Regarding “QVQLQDSGGGLVQAGGSLRLNCATSGTIFVLWYMGCYRQAPGKERELVATINDGANTYYADSVKGRFTINRDNANSTVYLQMNSLQPEDSAVYYCSVYAIIVWGLGYWGQGTQVTVSS”, the “polyreactivity (PSR sort gate)” value is “high polyreactivity”.
Then “QVQLQDSGSGLVQAGGSLRLSCAASGAIFPAYLMVSYRQAPGKERELVAGISYGSITYCADSVKGRFNISRDNAKNTVYLQMNSLKPEDTAVYYCAVWRPGGDEYYYWGQGTQVTVSS”, with “low polyreactivity”; and “QVQLQDTGGGLVQAGGSPRLSCAASDNIFPDSVMCWYRQAPGKERELVATIGFGATTNYADSVKGRFTISRDNAKITVYLQMNSLKPEDSAVYYCAADPLNYEYFCYWGQGTQVTVRS”, with “low polyreactivity”; and “QVQLQECGGGLVQAGGSLRLSCAASGHIFDADIMGWYRQAPGKERELVASVTDGGSTNYADSVKGRFTISRDNAKNTVYLQMNSLKPEATAVFYCAAIVYPDILTYFDYDYDYFYWGQGTQVTVGS”, with “low polyreactivity”.
The result for “QVQLQECGGGLVQAGGSLRLTCAASGNIFHADIMGWYRQAPGKERELVARVTDGGSTNYADSVKGRLTISRDNAKNTVYLQMNSLKPEETAVYYCAAIVYPVILTYFDYDYDYFYWGQGTQVTVGS” reads “low polyreactivity”; that for “QVQLQEIGGGLVQAGRSLRLSCAASGSISRLDYMGWYRQASGKERELVAAIDNGSTTYYADSVKGRLTISRDNAKYTVYLQMNSLKPEDTAVYFCAAVRGRGGTHAYWGQGTQVTVSG”, “low polyreactivity”; that for “QVQLQERGGGLVQAGGSLRLGCEASGNISDDGYMGWYRQAPGKEREFVAAIAAGSNTNYADSVKGRFTISRDNAKNTVYLQMNSLKPVETAVFYCAVASYARVQYLYWGQGTQVTVYS”, “low polyreactivity”.
For “QVQLQERGGGLVQAGGSLRLSCAASCTIFRFRYMGGHRQAPGKERELVAGINGGTTTYYADSEIGRFTMSRDNAKNTLYLQMNSLKPDDTAVYNCAAGDSRLTYYDYWGQGTQVTVSS”, the “polyreactivity (PSR sort gate)” value was “low polyreactivity”.
Then “QVQLQERGGGLVQAGGSLRLSCAASGSIFHYTQMGWYLQAPGKEREFVAAITDGANTNYADSVKGRFTISRDNAKNTVNLQMNSLIPEDTAVFYCATDYGYTDRVTSGFDYWGQGTQVTVSS”, with “low polyreactivity”.
Then “QVQLQERGGGLVQAGGSLRQRCAASRNISASSDLGWYHQAPGKEREFVASITSGGTTYYADSVKGRFTISRDNAKNTVYLQMNSLKPEDTAVYYCAVGDPADAEFGYWGKGTQVTVSS”, with “low polyreactivity”.
In the case of “QVQLQESAGARQPAPELRGERIYFWLLLMCWYRQAPGEERELVAGINDGASTNYADSVKGRFTISRDNARNTVYLKMNSLKPGDTAVYYCAVWQPVLIWFYYWGQGTHVTVSS”, the “polyreactivity (PSR sort gate)” value was “high polyreactivity”.
The result for “QVQLQESAGGLEQAGGSLRRICSARCNINSDASMGSYRQAPGKQREHAASTTKGSRTHDAESVKGRLTIRDNAKNTVYLQMNSLKPDDTAVCYSAVTYPYWGDYTYWGQGTQVTVSS” reads “low polyreactivity”; that for “QVQLQESAVLVQAGGSLRLSCPASGSISGRNVMGRYRQAQAKQREFVASITDGSSTNYADSVKGRFTISRDNAKNTVYLQMNSLNPKDTAVYYCAAYAQRAKSFGYWGRGTQVTVSS”, “low polyreactivity”; that for “QVQLQESDGGLVQAGGSLRLSCAASGSISPQYYMGWYRQAPGKEREFVAISKGTTTYYADSVKGRLTISRVNAKNTVYLQMNSLKPEDTAVYCCAAVRWLQKVHAYWDQGTQVTVSS”, “low polyreactivity”.
Then “QVQLQESGAGLVQAGGSLRLSCAASGSIIHLHIMCWYRQAPRKERESVAAISYGTSTYYADSVKGRFTICRDNAKNTVYLQMNSPKPDDTAVYYCAALFLVSKHHHYWGEGTQVTVSS”, with “low polyreactivity”; and “QVQLQESGDGLVQADGSLRLSCAASGYISGYYYMGWYRQQPGKERELVAGIDAFGSSTNYADCVKGRFTISRDNGKNTVYLQMISPKPDDTAVYYCAAVYDDWDYHWYWGQGTQVTVSS”, with “low polyreactivity”.
